Experimental data taken from patent US20090118184A1 (UNIVERSITY OF ROCHESTER, published 2009).
Changes are numbered by the printed parent chain.

Key:
Assay in all cases: cell-based or functional assay
[1] = molecular target: T1, factor VIIIa A1/A3C1C2 dimer, Y1786F (human, UniProt P00451 20-391; P00451 1709-2351)
T1 sequence 1: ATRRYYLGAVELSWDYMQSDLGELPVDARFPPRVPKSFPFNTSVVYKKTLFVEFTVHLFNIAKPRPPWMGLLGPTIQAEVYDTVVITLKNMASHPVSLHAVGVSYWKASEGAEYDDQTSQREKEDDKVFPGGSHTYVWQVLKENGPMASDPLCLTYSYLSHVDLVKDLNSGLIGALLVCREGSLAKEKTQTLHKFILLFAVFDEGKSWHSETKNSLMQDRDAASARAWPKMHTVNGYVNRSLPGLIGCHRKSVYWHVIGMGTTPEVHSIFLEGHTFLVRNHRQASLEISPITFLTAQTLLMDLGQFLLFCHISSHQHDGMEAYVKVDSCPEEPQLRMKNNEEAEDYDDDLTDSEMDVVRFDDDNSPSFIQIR
T1 sequence 2: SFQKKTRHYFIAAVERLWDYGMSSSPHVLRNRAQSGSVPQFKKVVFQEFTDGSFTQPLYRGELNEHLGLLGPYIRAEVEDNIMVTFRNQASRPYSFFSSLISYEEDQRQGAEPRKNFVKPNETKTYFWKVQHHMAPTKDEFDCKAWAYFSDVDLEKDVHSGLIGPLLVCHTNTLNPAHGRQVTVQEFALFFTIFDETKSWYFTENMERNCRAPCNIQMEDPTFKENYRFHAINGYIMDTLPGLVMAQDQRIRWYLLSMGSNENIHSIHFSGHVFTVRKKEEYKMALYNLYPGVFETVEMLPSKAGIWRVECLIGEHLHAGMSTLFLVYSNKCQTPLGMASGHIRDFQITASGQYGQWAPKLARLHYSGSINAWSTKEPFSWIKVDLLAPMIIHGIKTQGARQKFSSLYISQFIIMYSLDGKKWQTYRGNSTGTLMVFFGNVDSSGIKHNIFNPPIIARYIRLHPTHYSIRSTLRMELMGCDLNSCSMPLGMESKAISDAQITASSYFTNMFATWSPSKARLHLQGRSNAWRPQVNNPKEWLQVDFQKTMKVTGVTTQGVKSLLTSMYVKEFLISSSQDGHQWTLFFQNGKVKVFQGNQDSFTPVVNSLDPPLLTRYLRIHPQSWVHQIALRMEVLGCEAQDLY

[2] = molecular target: T2, factor VIIIa A1/A3C1C2 dimer, S1791A (human, UniProt P00451 20-391; P00451 1709-2351)
T2 sequence 1: T1 sequence 1
T2 sequence 2: T1 sequence 2 with F97Y, S102A

[3] = molecular target: T3, factor VIIIa A1/A3C1C2 dimer, H281A (human, UniProt P00451 20-391; P00451 1709-2351)
T3 chain 1: T1 sequence 1 with H281A
T3 chain 2: T1 sequence 2 with F97Y

Factor VIIIa decay rate relative to wild type, FIXa (+) [1]: 20.9 relative to wild type
Factor VIIIa decay rate relative to wild type, FIXa (-) [1]: 17 relative to wild type
Factor VIIIa decay rate, FIXa (+) [1]: 0.236 min⁻¹
Factor VIIIa decay rate, FIXa (-) [1]: 1.07 min⁻¹
Factor VIIIa decay rate relative to wild type, FIXa (+) [2]: 1.85 relative to wild type
Factor VIIIa decay rate, FIXa (+) [2]: 0.0208 min⁻¹
Factor VIIIa decay rate relative to wild type, FIXa (+) [3]: 3.99 relative to wild type
Factor VIIIa decay rate, FIXa (+) [3]: 0.045 min⁻¹
B1: factor VIIIa A2 subunit, wild type (other)
chain: SVAKKHPKTWVHYIAAEEEDWDYAPLVLAPDDRSYKSQYLNNGPQRIGRKYKKVRFMAYTDETFKTREAIQHESGILGPLLYGEVGDTLLIIFKNQASRPYNIYPHGITDVRPLYSRRLPKGVKHLKDFPILPGEIFKYKWTVTVEDGPTKSDPRCLTRYYSSFVNMERDLASGLIGPLLICYKESVDQRGNQIMSDKRNVILFSVFDENRSWYLTENIQRFLPNPAGVQLEDPEFQASNIMHSINGYVFDSLQLSVCLHEVAYWYILSIGAQTDFLSVFFSGYTFKHKMVYEDTLTLFPFSGETVFMSMENPGLWILGCHNSDFRNRGMTALLKVSSCDKNTGDYYEDSYEDISAYLLSKNNAIEPR
